Values of other authors as cited in PMC8151241.

How the values were obtained:
[1] = biological target: GAPDH (Chlamydomonas reinhardtii) (UniProt P50362)
[2] = biological target: PRK (Chlamydomonas reinhardtii) (UniProt P19824)
[3] = biological target: CP12-GAPDH complex (Chlamydomonas reinhardtii) (UniProt A6Q0K5)

Sequence of UniProt P50362 (P50362 35-374): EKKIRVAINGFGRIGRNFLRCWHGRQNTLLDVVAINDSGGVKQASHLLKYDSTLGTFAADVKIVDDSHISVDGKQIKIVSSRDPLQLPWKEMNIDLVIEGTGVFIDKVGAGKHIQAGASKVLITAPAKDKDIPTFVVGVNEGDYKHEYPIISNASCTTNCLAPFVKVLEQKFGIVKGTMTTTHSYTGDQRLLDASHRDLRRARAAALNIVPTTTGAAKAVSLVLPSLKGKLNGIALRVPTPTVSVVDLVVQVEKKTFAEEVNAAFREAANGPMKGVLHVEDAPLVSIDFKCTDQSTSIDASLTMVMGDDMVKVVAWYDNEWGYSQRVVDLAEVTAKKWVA

In the case of CP12 (from UniProt A6Q0K5), the Kd [1] is listed as 0.4 nM and the Kd [2] is listed as 1300 nM.

For PRK (from UniProt P19824), the Kd [3] is given as 60 nM.
